Laboratory results from patent publication US20210371517A1.
Where two headings read alike, the source gives them in different places.

What was measured:
Assay in all cases: cell-based or functional assay
CD171 (L1CAM) (human) [1] = molecular target: CD171 (L1CAM) (human) (UniProt P32004)
CD171 (L1CAM) (human) [2] = molecular target: CD171 (L1CAM) (human) (UniProt P32004); remark: listed apart in the source
Fas (CD95) (human) = Fas (CD95) (human) (UniProt P25445)
UniProt P25445, sequence (P25445 26-335): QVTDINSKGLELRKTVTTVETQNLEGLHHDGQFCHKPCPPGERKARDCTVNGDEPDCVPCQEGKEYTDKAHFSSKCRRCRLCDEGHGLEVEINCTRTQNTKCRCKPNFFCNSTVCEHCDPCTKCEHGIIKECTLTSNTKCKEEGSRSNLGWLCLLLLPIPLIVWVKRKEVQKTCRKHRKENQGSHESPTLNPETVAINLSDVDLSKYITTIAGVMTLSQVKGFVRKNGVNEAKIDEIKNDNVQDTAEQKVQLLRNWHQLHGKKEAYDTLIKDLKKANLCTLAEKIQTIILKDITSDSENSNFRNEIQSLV

UniProt P32004, sequence (P32004 20-1257): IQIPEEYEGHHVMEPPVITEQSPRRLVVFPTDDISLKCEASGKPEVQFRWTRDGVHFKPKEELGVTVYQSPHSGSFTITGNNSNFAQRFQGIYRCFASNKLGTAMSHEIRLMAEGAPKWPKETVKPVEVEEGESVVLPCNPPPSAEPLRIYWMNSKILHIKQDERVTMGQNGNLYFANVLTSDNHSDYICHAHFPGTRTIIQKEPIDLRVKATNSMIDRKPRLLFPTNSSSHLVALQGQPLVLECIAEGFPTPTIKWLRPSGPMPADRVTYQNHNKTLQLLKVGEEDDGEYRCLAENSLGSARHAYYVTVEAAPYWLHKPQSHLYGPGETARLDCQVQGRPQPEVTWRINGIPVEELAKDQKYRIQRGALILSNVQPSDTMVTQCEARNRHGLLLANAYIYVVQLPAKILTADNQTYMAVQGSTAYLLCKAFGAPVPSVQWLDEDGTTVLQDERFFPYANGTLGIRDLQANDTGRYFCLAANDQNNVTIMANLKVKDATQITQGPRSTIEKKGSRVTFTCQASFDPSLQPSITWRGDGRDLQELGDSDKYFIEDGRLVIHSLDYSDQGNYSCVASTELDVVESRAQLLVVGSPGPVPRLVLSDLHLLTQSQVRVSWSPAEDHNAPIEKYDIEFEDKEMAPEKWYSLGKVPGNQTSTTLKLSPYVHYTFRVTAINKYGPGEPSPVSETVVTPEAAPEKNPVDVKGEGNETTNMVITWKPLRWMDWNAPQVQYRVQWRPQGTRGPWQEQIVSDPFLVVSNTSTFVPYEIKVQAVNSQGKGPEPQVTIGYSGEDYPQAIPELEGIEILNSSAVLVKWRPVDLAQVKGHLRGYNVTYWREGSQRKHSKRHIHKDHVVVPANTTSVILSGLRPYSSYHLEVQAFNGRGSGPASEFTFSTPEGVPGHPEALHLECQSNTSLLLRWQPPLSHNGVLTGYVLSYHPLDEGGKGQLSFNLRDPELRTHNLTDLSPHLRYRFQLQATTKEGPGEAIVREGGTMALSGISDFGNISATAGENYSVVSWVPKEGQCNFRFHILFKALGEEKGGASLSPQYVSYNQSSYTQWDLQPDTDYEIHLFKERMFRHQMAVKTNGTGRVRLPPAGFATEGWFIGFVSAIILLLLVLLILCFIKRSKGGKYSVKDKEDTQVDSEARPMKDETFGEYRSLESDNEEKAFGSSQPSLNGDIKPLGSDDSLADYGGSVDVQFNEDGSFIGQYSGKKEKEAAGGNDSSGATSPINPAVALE
CE7scFv-IgG4hinge-CD28tm/cyto-4-1BB-zeta (short) CD171-specific chimeric receptor with two costimulatory domains, sequence (main): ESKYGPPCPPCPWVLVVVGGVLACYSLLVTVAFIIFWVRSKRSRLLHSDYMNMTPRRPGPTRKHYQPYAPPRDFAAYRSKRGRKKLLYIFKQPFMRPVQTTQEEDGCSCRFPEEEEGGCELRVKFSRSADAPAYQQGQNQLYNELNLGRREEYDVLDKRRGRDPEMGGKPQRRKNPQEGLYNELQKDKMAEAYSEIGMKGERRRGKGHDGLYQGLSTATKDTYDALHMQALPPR

% CD25+CD69+ T cells after round III of tumor cell co-culture (CD171 (L1CAM) (human) [1]) [%]	% CD25+CD69+ T cells after round III of tumor cell co-culture (CD171 (L1CAM) (human) [2]) [%]	% CD25+CD69+ T cells, stress test round I with Be2 cells (CD171 (L1CAM) (human) [2]) [%]	% CD25+CD69+ T cells, stress test round II with Be2 cells (CD171 (L1CAM) (human) [2]) [%]	% CD25+CD69+ T cells, stress test round III with Be2 cells (CD171 (L1CAM) (human) [2]) [%]	IL-2 secretion in Be2 co-culture, fold over 2G-CAR(SS) (CD171 (L1CAM) (human) [2]) [fold]	TNF-α secretion in Be2 co-culture, fold over 2G-CAR(SS) (CD171 (L1CAM) (human) [2]) [fold]	cytolytic activity against Be2 targets, fold over 2G-CAR(SS) (CD171 (L1CAM) (human) [2]) [fold]	induction of CD137 expression upon tumor contact, fold over 2G-CAR(SS) (CD171 (L1CAM) (human) [2]) [fold]	IFN-γ secretion in Be2 co-culture, fold over 2G-CAR(SS) (CD171 (L1CAM) (human) [2]) [fold]	percentage of cells expressing activation marker CD137, fold over CD171-CAR(SS) (CD171 (L1CAM) (human) [2]) [fold]	phospho-ERK level after co-culture with CD171+ Be2 cells, fold over CD171-CAR(SS) (CD171 (L1CAM) (human) [2]) [fold]	Substance	T cell viability of 2G-CAR(LS) CTLs after round III following siRNA knockdown of Fas, fold increase (Fas (CD95) (human)) [fold]	T cell viability of 2G-CAR(LS) CTLs after round III following siRNA knockdown of FasL, fold increase (Fas (CD95) (human)) [fold]
42	40	46.8	47.6	42.1	–	–	–	–	–	–	–	CE7scFv-IgG4hinge-CD28tm/4-1BB-zeta (short) CD171-specific chimeric receptor	–	–
–	60	–	–	–	5.1	2.5	1.3	8.4	–	–	–	CE7scFv-IgG4hinge-CD28tm/cyto-4-1BB-zeta (short) CD171-specific chimeric receptor with two costimulatory domains	–	–
–	–	–	–	–	–	–	–	–	–	–	–	Fas ligand (FasL, CD178) (from UniProt P48023 1-281)	1.4	1.6
66	–	79.4	74	65.7	6.3	6.1	–	–	8.4	5.7	3.1	Ce7scFv-IgG4hinge-CH2-CH3-CD28tm/4-1BB-zeta (long construct) CD171-specific chimeric receptor	–	–
